{
  "source": "paper PMC6458161",
  "about": "(2019)",
  "key": {"[1]": {"system": "protamine (sulfate salt) (salmon)", "assay": "ITC", "conditions": "ITC in Hepes buffer, 25 C (salt and pH not given in the material), short duplexes 10 uM (strand concentration), protamine 100 uM"}, "[2]": {"system": "GCDNA (DNA, duplex) GCGCGCGCGC", "assay": "ITC", "conditions": "Hepes buffer, 25 °C; 200 µM Net titrated into 10 µM DNA (strand concentration)"}, "[3]": {"system": "GCDNA (DNA, duplex) GCGCGCGCGC", "assay": "ITC, one set of sites fit", "conditions": "Na+ 100 mM (from the 10 mM Hepes/100 mM NaCl UV and gel buffer; the ITC buffer is only given as Hepes buffer), 25 °C, 500 µM EtBr titrated into 10 µM DNA (strand concentration)"}, "[4]": {"system": "ATDNA (DNA, duplex) GCAAATTTGC", "assay": "ITC, one set of sites fit", "conditions": "Na+ 100 mM (from the 10 mM Hepes/100 mM NaCl UV and gel buffer; the ITC buffer is only given as Hepes buffer), 25 °C, 200 µM EtBr titrated into 10 µM DNA (strand concentration)"}, "[5]": {"conditions": "20 uM ethidium bromide (EtBr-bound DNA)"}},
  "data": [
    {"molecule": "GCAAATTTGC (double strand) [ATDNA]", "values": [
      {"measurement": "Ka", "setting": "[1]; [5]", "value": "3.9e+06", "unit": "M⁻¹"},
      {"measurement": "Ka", "setting": "[1]; 20 uM netropsin (Net-bound DNA)", "value": "1.89e+08", "unit": "M⁻¹"},
      {"measurement": "Ka", "setting": "[1]; no drug", "value": "1.4e+08", "unit": "M⁻¹"}
    ]},
    {"molecule": "CTDNA (calf thymus DNA)", "values": [
      {"measurement": "Ka", "setting": "[1]; 60 uM ethidium bromide (EtBr-bound DNA)", "value": "6.36e+07", "unit": "M⁻¹"},
      {"measurement": "Ka", "setting": "[1]; 60 uM netropsin (Net-bound DNA)", "value": "5.54e+07", "unit": "M⁻¹"},
      {"measurement": "Ka", "setting": "[1]; no drug, CTDNA titrated into protamine", "value": 550000, "unit": "M⁻¹"}
    ]},
    {"molecule": "Cn1cc(NC(=O)c2cc(NC(=O)CN=C(N)N)cn2C)cc1C(=O)NCCC(=N)N", "values": [
      {"measurement": "binding", "setting": "[2]", "value": "no"}
    ]},
    {"molecule": "GCGCGCGCGC (double strand) [GCDNA]", "values": [
      {"measurement": "Ka", "setting": "[1]; [5]", "value": "4.5e+06", "unit": "M⁻¹"},
      {"measurement": "Ka", "setting": "[1]; 20 uM netropsin", "value": "4.5e+07", "unit": "M⁻¹"},
      {"measurement": "Ka", "setting": "[1]; no drug", "value": "3.4e+07", "unit": "M⁻¹"}
    ]},
    {"molecule": "CC[n+]1c(-c2ccccc2)c2cc(N)ccc2c2ccc(N)cc21", "values": [
      {"measurement": "KA", "setting": "[3]", "value": 145000, "unit": "M⁻¹"},
      {"measurement": "KA", "setting": "[4]", "value": 165000, "unit": "M⁻¹"}
    ]}
  ]
}
